In patent publication US20210238276A1 (INTEGRAL MOLECULAR, published 2021):

T1: human GLUT1 (hsGLUT1) (human, UniProt P11166 1-492)
T1 construct: whole, on cells
T1 sequence (looked up): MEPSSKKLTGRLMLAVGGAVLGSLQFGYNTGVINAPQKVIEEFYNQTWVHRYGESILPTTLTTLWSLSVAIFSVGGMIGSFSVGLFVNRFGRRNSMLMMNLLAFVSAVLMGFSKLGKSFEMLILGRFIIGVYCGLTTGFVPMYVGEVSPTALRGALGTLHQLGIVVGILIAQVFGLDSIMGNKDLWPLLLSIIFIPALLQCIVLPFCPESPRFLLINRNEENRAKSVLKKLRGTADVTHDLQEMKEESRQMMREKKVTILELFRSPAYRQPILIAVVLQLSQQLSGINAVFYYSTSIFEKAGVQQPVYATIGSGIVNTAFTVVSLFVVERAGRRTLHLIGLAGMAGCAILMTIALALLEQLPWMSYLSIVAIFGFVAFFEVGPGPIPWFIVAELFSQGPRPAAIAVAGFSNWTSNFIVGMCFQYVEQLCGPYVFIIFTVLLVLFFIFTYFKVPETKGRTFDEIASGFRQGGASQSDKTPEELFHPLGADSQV

T2: mouse GLUT1 (mmGLUT1) (mouse, UniProt P17809 1-492)
T2 construct: whole, on cells
T2 sequence (looked up): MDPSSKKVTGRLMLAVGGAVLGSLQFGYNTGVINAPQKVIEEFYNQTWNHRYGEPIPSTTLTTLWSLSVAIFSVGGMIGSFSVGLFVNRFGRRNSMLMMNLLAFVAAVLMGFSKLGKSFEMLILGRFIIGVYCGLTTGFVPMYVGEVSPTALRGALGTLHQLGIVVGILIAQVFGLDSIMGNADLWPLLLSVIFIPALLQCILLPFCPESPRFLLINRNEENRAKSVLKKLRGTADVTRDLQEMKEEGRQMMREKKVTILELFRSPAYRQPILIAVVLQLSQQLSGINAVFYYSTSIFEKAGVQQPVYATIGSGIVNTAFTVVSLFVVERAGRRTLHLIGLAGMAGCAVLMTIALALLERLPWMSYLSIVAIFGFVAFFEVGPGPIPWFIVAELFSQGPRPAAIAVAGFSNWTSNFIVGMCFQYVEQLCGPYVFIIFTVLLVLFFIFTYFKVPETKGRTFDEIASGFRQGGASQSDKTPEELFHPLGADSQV

T3: human GLUT2 (hsGLUT2) (human, UniProt P11168 1-524)
T3 construct: whole, on cells
T3 sequence (looked up): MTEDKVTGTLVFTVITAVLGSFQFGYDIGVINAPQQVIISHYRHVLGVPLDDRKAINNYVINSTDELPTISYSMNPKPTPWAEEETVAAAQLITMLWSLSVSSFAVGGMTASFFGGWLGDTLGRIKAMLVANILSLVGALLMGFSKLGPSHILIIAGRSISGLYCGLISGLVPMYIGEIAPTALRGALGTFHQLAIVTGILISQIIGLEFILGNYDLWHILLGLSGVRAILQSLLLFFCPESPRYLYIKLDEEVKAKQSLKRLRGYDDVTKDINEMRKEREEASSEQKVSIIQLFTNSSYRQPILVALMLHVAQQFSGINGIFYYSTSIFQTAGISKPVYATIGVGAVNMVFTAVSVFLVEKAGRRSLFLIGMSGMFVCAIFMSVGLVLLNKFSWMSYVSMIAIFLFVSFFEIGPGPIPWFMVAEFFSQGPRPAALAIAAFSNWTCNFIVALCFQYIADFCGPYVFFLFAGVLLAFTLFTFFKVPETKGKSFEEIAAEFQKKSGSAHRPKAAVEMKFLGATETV


Experiments:
Experiment in all cases: flow cytometry, transfected HEK-293T
human GLUT1 (hsGLUT1) = target: T1, human GLUT1 (hsGLUT1)
Procedure: (§1) HEK-293T cells were transfected by CaPO₄ with plasmids in 6-well culture plates (Falcon) at 750,000 cells/well. At 48 hours post transfection, cells were stained with anti-V5 and anti-GLUT4 MAbs (purified scFv, 2 μg/ml) followed by biotinylated goat anti-mouse or human antibody (1:500) and streptavidin-PerCP (1:500). Fluorescence was detected using an Intellicyt high-throughput flow cytometer (HTFC; Intellicyt, Albuquerque, N. Mex.). For cell permeabilization, cells were treated with saponin at 0.1% in PBS for 20 minutes. To discriminate intact (live) and permeabilized (dead) cells without the use of detergent, propidium iodide (PI) was added to HEK-293T cells at 1 ug/ml just prior to flow cytometry. Where indicated, cytochalasin B (Sigma) was used at a final concentration of 10 uM and phloretin (Sigma) was used at a final concentration of 100 uM, each added in 10% NGS for 30 minutes prior to antibody staining as well as included with the primary antibody.

mouse GLUT1 (mmGLUT1) = target: T2, mouse GLUT1 (mmGLUT1)
Procedure: as §1

human GLUT2 (hsGLUT2) = target: T3, human GLUT2 (hsGLUT2)
Procedure: as §1

Binder	binding result (human GLUT1 (hsGLUT1))	binding result (mouse GLUT1 (mmGLUT1))	binding result (human GLUT2 (hsGLUT2))
AB105 (Fc fusion, Bivalent scFv-Fc; also called MAb AB105; not shown: Fc fragment of human IgG1, cloned in frame with the scFv) scFv: ALTQPSSVSANPGETVEITCSGDSSYYGWYQQKSPGSAPVTVIYANTNRPSDIPSRFSGSASGSTATLTITGVQAEDEAVYYCGSADSTYAGIFGAGTTLTVLGQSSRSSGGGGSSGGGGSAVTLDESGGGLQTPGGALSLICKASGFTFSSYTMNWVRQAPGKGLEWVGVISNSGRTTNYGAAVQGRATISRDNGQSTVRLQLNNLRAEDTGTYYCAKSSASASCAWWAGRSYPCSANRIDAWGHGTEVIVSS	no binding (tested: 2 µg/ml)	no binding (tested: 2 µg/ml)	no binding (tested: 2 µg/ml)
AB111 (Fc fusion, Bivalent scFv-Fc; also called MAb AB111; not shown: Fc fragment of human IgG1, cloned in frame with the scFv) scFv: ALTQPSSVSANPGETVKITCSGSGSWYGWFQQKSPGSAPVTVIYSNDKRPSDIPSRFSGSKSGSTSTLTITGVQVEDEAVYYCGNWDIFGAGTTLTVLGQSSRSSGGGGSSGGGGSAVTLDESGGGLQTPGGALSLVCKASGFTFSSHGMGWVRQAPGKGLEWVASISTGRYTFYAPAVKGRATISRDNGQSTVRLQLNNLRAEDTATYYCTKCAGLNGCGGGEIDAWGHGTEVIVSS	no binding (tested: 2 µg/ml)	no binding (tested: 2 µg/ml)	no binding (tested: 2 µg/ml)
AB108 (Fc fusion, Bivalent scFv-Fc; also called MAb AB108; not shown: Fc fragment of human IgG1, cloned in frame with the scFv) scFv: ALTQPSSVSANLGGTVKITCSGSSGSYGWYQQKAPGSAPVTLIYRNDKRPSDIPSRFSGSESGSTGTLTITGVQAEDEAVYFCGGYDSSAGYAAFGAGTTLTVLGQSSRSSGGGGSSGGGGSAVTLDESGGGLQTPGGALSLVCKASGFTFSSHGMGWVRQAPGKGLEWVGSISTGRYTFYAPAVKGRATISRDNGQSTLRLQLNNLRAEDTGTYYCTKCAGLNGCGGGEIDAWGHGTEVIVSS	no binding (tested: 2 µg/ml)	no binding (tested: 2 µg/ml)	no binding (tested: 2 µg/ml)
